Measurements: paper PMC3401101

Legend:
[1] = target: T1, DNA topoisomerase IIIα (UniProt Q13472)
T1 sequence: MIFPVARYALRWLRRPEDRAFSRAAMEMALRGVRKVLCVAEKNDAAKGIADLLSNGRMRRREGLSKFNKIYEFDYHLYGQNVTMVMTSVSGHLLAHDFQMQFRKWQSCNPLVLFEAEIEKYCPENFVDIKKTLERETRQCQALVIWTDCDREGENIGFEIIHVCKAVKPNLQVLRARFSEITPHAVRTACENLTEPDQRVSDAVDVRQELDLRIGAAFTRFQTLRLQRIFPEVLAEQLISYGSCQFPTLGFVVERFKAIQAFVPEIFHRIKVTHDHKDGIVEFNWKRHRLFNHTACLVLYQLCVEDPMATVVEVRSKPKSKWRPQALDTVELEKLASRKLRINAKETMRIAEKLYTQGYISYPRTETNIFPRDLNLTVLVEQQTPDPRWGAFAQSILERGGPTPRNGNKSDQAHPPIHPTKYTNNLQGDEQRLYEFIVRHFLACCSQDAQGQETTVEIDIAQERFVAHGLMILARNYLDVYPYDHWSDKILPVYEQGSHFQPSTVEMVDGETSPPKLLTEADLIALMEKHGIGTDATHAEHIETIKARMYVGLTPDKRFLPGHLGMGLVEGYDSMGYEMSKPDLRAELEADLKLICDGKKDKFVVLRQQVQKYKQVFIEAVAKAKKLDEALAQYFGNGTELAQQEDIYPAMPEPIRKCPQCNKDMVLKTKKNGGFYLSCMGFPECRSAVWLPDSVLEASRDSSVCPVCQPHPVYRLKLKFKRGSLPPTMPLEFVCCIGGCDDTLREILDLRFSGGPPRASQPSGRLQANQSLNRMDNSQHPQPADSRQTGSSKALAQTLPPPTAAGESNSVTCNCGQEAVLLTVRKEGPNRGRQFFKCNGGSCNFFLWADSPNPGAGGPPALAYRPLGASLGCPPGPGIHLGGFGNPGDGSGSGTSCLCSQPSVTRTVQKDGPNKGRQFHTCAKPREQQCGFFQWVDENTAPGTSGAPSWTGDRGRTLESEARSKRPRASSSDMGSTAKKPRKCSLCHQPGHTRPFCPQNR

[2] = target: T1, DNA topoisomerase IIIα; remark: listed apart in the source

BLM (from UniProt P54132 1-1417) (enzyme)
TopoIIIα decatenase activity with BLM (33-66 nM) in the presence of RPA (100 nM), against TopoIIIα alone [1]: 1.5 fold

B1: RMI1 (natural protein)
chain: MNVTSIALRAETWLLAAWHVKVPPMWLEACINWIQEENNNVNLSQAQMNKQVFEQWLLTDLRDLEHPLLPDGILEIPKGELNGFYALQINSLVDVSQPAYSQIQKLRGKNTTNDLVTAEAQVTPKPWEAKPSRMLMLQLTDGIVQIQGMEYQPIPILHSDLPPGTKILIYGNISFRLGVLLLKPENVKVLGGEVDALLEEYAQEKVLARLIGEPDLVVSVIPNNSNENIPRVTDVLDPALGPSDEELLASLDENDELTANNDTSSERCFTTGSSSNTIPTRQSSFEPEFVISPRPKEEPSNLSIHVMDGELDDFSLEEALLLEETVQKEQMETKELQPLTFNRNADRSIERFSHNPNTTNNFSLTCKNGNNNWSEKNVSEQMTNEDKSFGCPSVRDQNRSIFSVHCNVPLAHDFTNKEKNLETDNKIKQTSSSDSHSLNNKILNREVVNYVQKRNSQISNENDCNLQSCSLRSSENSINLSIAMDLYSPPFVYLSVLMASKPKEVTTVKVKAFIVTLTGNLSSSGGIWSITAKVSDGTAYLDVDFVDEILTSLIGFSVPEMKQSKKDPLQYQKFLEGLQKCQRDLIDLCCLMTISFNPSLSKAMVLALQDVNMEHLENLKKRLNK
TopoIIIα-mediated decatenation of single-stranded catenane with both BLM (17 nM) and RMI1 (75-150 nM) in the presence of RPA (100 nM), against TopoIIIα alone [2]: 30 fold
